Reference: the supplement of paper PMC11908140

B1: library; numbered along this chain (parent)
chain: MRKPRAAVGSGHRKQAASQEGRQKHAKNNSQAKPSACDGLARQPEEVVLQASVSSYHLFRDVAEVTAFRGSLLSWYDQEKRDLPWRRRAEDEMDLDRRAYAVWVSEVMLQQTQVATVINYYTGWMQKWPTLQDLASASLEEVNQLWAGLGYYSRGRRLQEGARKVVEELGGHMPRTAETLQQLLPGVGRYTAGAIASIAFGQATGVVDGNVARVLCRVRAIGADPSSTLVSQQLWGLAQQLVDPARPGDFNQAAMELGATVCTPQRPLCSQCPVESLCRARQRVEQEQLLASGSLSGSPDVEECAPNTGQCHLCLPPSEPWDQTLGVVNFPRKASRKPPREESSATCVLEQPGALGAQILLVQRPNSGLLAGLWEFPSVTWEPSEQLQRKALLQELQRWAGPLPATHLRHLGEVVHTFSHIKLTYQVYGLALEGQTPVTTVPPGARWLTQEEFHTAAVSTAMKKVFRVYQGQQPGTCMGSKRSQVSSPCSRKKPRMGQQVLDNFFRSHISTDAHSLNSAAQ

Variants of: B1
Assay: 8OG:A repair function score (normalized; synonymous = 0, nonsense = -1) (normalized log-likelihood score); higher = more repair activity (WT-like)
Details: with 8OG:A DNA repair reporter (GFP) in HEK-293 MUTYH KO cells
In short: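 MUTYH knockout HEK-293 cells carrying lentiviral MUTYH cDNA NNN codon-scan libraries were grown with 10 pg/ml doxycycline and co-transfected with mCherry and a GFP reporter of 8OG:A repair. Viable mCherry+ cells were sorted at 72 h into GFP+ (repair) and GFP− bins, with three replicates per tile, and tile amplicons were sequenced. Rosace fitness scores for each tile were turned into a normalized repair function score anchored on the synonymous and nonsense distributions. Synonymous medians were set to 0 and nonsense medians to -1, and variants below 300 counts per million at the start were dropped.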

8OG:A repair function score, by site and new letter:
N251: V -0.84 | R -1.02 | S -0.903 | K -0.983 | P -1.02 | E -1.02 | L -0.938 | A -0.847 | I -0.889 | G -0.951 | H -0.943 | F -1.03 | Q -0.901 | C -0.884 | Y -1.01 | T -0.798 | M -0.915 | D -0.947 | W -0.879
P264: V -0.0712 | M -0.233 | K -0.048 | D -0.274 | T -0.066 | W -0.113 | S -0.0872 | A -0.0364 | Q -0.145 | G -0.159 | I -0.1 | C -0.102 | H -0.113 | R -0.0983 | E -0.25 | N -0.0423 | F -0.223 | Y -0.087 | L -0.0962
A253: P -1.02 | S -0.559 | T -0.994 | Q -1.02 | W -0.975 | H -1.03 | M -1.03 | Y -0.985 | N -1.01 | C -0.853 | G -0.438 | R -1.01 | E -1.02 | L -1.02 | K -1.02 | V -1 | F -1.03 | I -1.02 | D -1.03
T263: R -0.0312 | W -0.28 | K -0.017 | N -0.0422 | Y -0.113 | V -0.0463 | S -0.0723 | P -0.461 | L -0.0322 | M -0.0448 | D -0.24 | E -0.267 | A -0.167 | G -0.115 | H -0.124 | Q -0.129 | C -0.141 | I -0.0749 | F -0.0981
C262: Y -1.21 | F -1.14 | E -1.28 | S -1.38 | W -0.941 | M -1.06 | I -1.12 | D -1.2 | T -1.19 | K -1.3 | A -1.38 | L -1.26 | H -1.1 | Q -1.27 | V -1.26 | N -1.19 | G -1 | R -1.05 | P -1.18
A259: D -1 | Q 0.0355 | I -0.953 | L -0.889 | P -1.09 | H -0.138 | G -0.148 | F -0.503 | S -0.0739 | Y -0.675 | V -0.765 | E -0.0308 | M -0.739 | K -0.197 | C -0.242 | W -0.859 | R -0.0545 | N -0.257 | T -0.329
G248: V -0.998 | P -0.995 | S -0.709 | L -1.01 | A -0.729 | E -0.978 | M -0.879 | D -0.876 | C -0.885 | N -0.871 | K -0.801 | Q -0.882 | F -0.958 | R -0.738 | Y -0.996 | T -0.939 | W -0.937 | H -0.883 | I -1.02
Q252: P -1 | R -1.01 | K -0.999 | M -0.854 | G -0.891 | N -0.588 | W -1.04 | T -0.856 | V -0.798 | C -0.576 | A -0.658 | Y -0.982 | E -0.386 | D -1.01 | I -0.942 | L -0.863 | H -0.873 | F -1.02 | S -0.483
G258: K -1.14 | C -1.12 | H -1.65 | M -1.19 | I -1.02 | S -1.05 | P -1.06 | D -1.04 | W -1.49 | E -1.27 | Q -1.21 | L -1.12 | N -1.2 | Y -1.23 | T -1.21 | V -1.2 | F -1.24 | R -1.2
V261: K -0.147 | I -0.0723 | D -0.737 | Q -0.57 | W -0.489 | R -0.0976 | F -0.278 | A -0.399 | H -0.25 | C -0.11 | S -0.503 | Y -0.342 | T -0.0821 | E -0.804 | P -0.891 | G -0.599 | M -0.124 | L -0.0765 | N -0.379
E256: C -0.939 | R -0.814 | L -0.906 | I -0.901 | S -0.507 | F -0.679 | A -0.756 | T -0.514 | V -1.14 | G -0.676 | P -1.07 | H -1.34
P247: R -1 | K -1.03 | L -1.02 | N -1 | Q -0.968 | W -1.03 | M -0.978 | Y -1.04 | V -0.95 | S -0.584 | T -0.856 | I -0.969
F250: Q -0.831 | T -0.65 | Y 0.0779 | L -0.595 | D -1.01 | R -1.01 | H -0.485 | S -0.385 | V -0.797 | E -1.03 | K -1.03 | C -0.435 | G -0.867 | A -0.516 | N -0.903 | M -0.607 | P -1.03 | W -0.258 | I -0.896
A254: T -2.58e-05 | D -0.87 | E -0.62 | F 0.057 | R -0.99 | V 0.0529 | N -0.427 | G -0.374 | Y -0.534 | L 0.114 | P -0.979 | K -0.725 | C -0.0862 | Q -0.213 | S -0.223 | W -0.393 | I 0.133 | M 0.317 | H -0.175
T260: M -0.0209 | F -0.281 | G -0.126 | C -0.129 | V -0.0429 | H -0.293 | L -0.00446 | Q -0.0253 | A -0.056 | S -0.104 | N -0.111 | I -0.0181 | E -0.154 | Y -0.385 | K -0.0184 | W -0.207 | P -1.17 | D -0.355 | R -0.0323
L257: T -0.763 | D -0.98 | I -0.176 | S -0.983 | R -1.09 | M -0.192 | V -0.182 | Q -0.72 | A -0.805 | K -1.22 | H -0.401 | P -1 | N -1.21 | E -1.08 | G -1.04 | F -0.285 | Y -0.76 | C -0.298 | W -0.968
Q265: D -0.156 | G -0.0557 | H 0.0203 | A -0.0137 | C -0.0499 | F -0.022 | E -0.243
M255: S -1.01 | G -1.02 | W -1.04 | Q -0.993 | K -1.01 | E -0.876 | V -0.846 | P -1 | F -0.873 | D -1.03 | C -0.788 | N -1.03 | H -1.03 | I -0.363 | T -0.883 | L -0.962 | R -1.03 | A -0.993 | Y -1.02
D249: M -0.419 | A -0.31 | Y -0.608 | L -0.649 | G -0.675 | S -0.402 | R -0.663 | I -0.596 | V -0.579 | H -0.28 | P -0.588 | E -0.208 | W -0.851 | F -0.75 | K -0.584 | C -0.396 | T -0.459 | N -0.673 | Q -0.428
